In this experiment the target is SARS-CoV 2P DS S (SARS-CoV) (UniProt P59594). Description: negative-stain electron microscopy.

This passage reports stoichiometry N results from article PMC7302216.

As for “SARS-CoV 2P DS S (from UniProt P59594 14-1195) (domain or fragment)”, the stoichiometry N (usually a count of units in the complex or per binding partner) came to 3.
